Data as given in the supplement of paper PMC9732359.
± gives the uncertainty stated by the source.

Assay: protein stability index of a GFP-peptide fusion (yeast GPS) (PSI 1-4); higher = more stable; sorted into four equal gates, so the index is relative within each strain
In short: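 Mid-log yeast cultures in leucine-free medium, carrying a pooled plasmid library, were sorted into four equal gates by their GFP/Cherry fluorescence ratio. Each plasmid expressed Cherry along with GFP fused upstream of a tiled 17-residue yeast protein peptide. Plasmids recovered from each gate were PCR-amplified and Illumina-sequenced, with reads assigned to strains by barcodes. The protein stability index was obtained by summing each gate's read frequency weighted by its gate number.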

Sequence | protein stability index (doa10∆) | protein stability index (pdr5∆) | protein stability index (san1∆) | protein stability index (ubr1∆)
LKLGLVEYLDVNEENDS [RET1] | 3.11 ± 0.075 | 3.08 ± 0.086 | 3.16 ± 0.071 | 3.1 ± 0.075
IAAKTHILRISFLDRKR [SIN4] | 2.53 ± 0.1 | 2.65 ± 0.09 | 1.84 ± 0.073 | 2.42 ± 0.049
KPGSKPEKTSTELVDGR [SIR3] | 3.16 ± 0.13 | 2.86 ± 0.16 | 3.26 ± 0.089 | 3.27 ± 0.14
MGKGTPSFGKRHNKSHT [RPL37A] | 3.24 ± 0.089 | 3.4 ± 0.067 | 3.1 ± 0.077 | 3.02 ± 0.069
AKLNYKNLNPASSSPSS [ECM29] | 3.25 ± 0.071 | 3.06 ± 0.08 | 2.79 ± 0.11 | 3.04 ± 0.051
ALVAYTPTDVIGVVSLT [RRP6] | 1.96 ± 0.091 | 1.57 ± 0.054 | 1.37 ± 0.11 | 1.93 ± 0.072
NKLLRRKLMEMENILQR [YIL149C/MLP2] | 3.41 ± 0.2 |  | 3.33 ± 0.11 | 
EELRDLYQTYHVLVGDL [FAS1] | 2.26 ± 0.071 | 2.54 ± 0.054 | 2.22 ± 0.059 | 2.38 ± 0.049
ERYYELAFDKLNVPVFQ [ARP7] | 1.87 ± 0.064 | 2.17 ± 0.073 | 1.83 ± 0.1 | 2.07 ± 0.07
NQILMSVNFFVSLLKKN [RPL1A] | 1.84 ± 0.052 | 2.35 ± 0.046 | 2.15 ± 0.075 | 2.39 ± 0.04
RRHRNPDLQFIVISLKN [SMC1] | 1.86 ± 0.041 | 1.83 ± 0.039 | 1.73 ± 0.058 | 2.13 ± 0.027
IKLSLKDKTKNISAEII [SMC4] | 2.84 ± 0.082 | 3.09 ± 0.08 | 3.04 ± 0.066 | 3.11 ± 0.082
DSNSEILNFLNQEDLFE [YML103C/NUP188] | 2.79 ± 0.12 | 2.86 ± 0.089 | 2.76 ± 0.049 | 3.14 ± 0.086
LKRYCCRRMILTHVDLI [RPB10] |  | 1.54 ± 0.11 |  | 1.57 ± 0.12
MENDKGQLVELYVPRKC [RPS21A] | 3.17 ± 0.14 |  | 3.23 ± 0.12 | 3.25 ± 0.091
SALWSSRKGIAFGLGAI [ECM29] | 2.59 ± 0.13 | 2.89 ± 0.094 | 2.2 ± 0.13 | 2.55 ± 0.089
LQQQTPVTIWLFEQIGI [SME1] | 1.66 ± 0.045 | 1.87 ± 0.041 | 1.64 ± 0.072 | 2 ± 0.042
KRHRSSYYDNDLDETTQ [YML031W/NDC1] | 2.8 ± 0.065 | 2.76 ± 0.071 | 2.68 ± 0.053 | 2.71 ± 0.071
VIDIGASGCNVTPIIDG [ARP7] | 2.67 ± 0.088 | 3.03 ± 0.084 | 2.93 ± 0.071 | 3.02 ± 0.05
QQSTDADEDDEDAKYVI [RPT1] |  | 3.56 ± 0.27 |  | 3.8 ± 0.14
NRANVSKDELREKLAEV [RPS24A] | 3.53 ± 0.089 | 3.24 ± 0.11 | 3.37 ± 0.072 | 3.28 ± 0.088
IQGISKMYSDDTLKDIS [BRN1] | 3.24 ± 0.17 | 3.35 ± 0.15 | 3.37 ± 0.15 | 3.05 ± 0.17
NSKNDSANVELFKRDCN [YCS4] | 2.75 ± 0.071 | 3.05 ± 0.089 | 3.25 ± 0.12 | 3.17 ± 0.07
SYVEPVLVASAKGLQTV [RPL31A] | 2.2 ± 0.059 | 2.33 ± 0.08 | 2.23 ± 0.065 | 2.22 ± 0.082
GAISAVAATNTPIIFIG [SRP54] | 2.85 ± 0.085 | 3.42 ± 0.17 | 2.69 ± 0.073 | 2.66 ± 0.086
SNDKVVEWINPSRRERR [ISW2] |  |  |  | 3.34 ± 0.15
CLSDYTKKISNFNSSLH [YJL039C/NUP192] | 1.56 ± 0.061 | 2.04 ± 0.057 | 1.72 ± 0.083 | 1.25 ± 0.036

Sequence | protein stability index (doa10∆) | protein stability index (pdr5∆) | protein stability index (san1∆) | protein stability index (ubr1∆)
AIPLLKVLRKFRVQSQS [NUT1] | 1.69 ± 0.085 | 1.93 ± 0.079 | 1.69 ± 0.11 | 2.5 ± 0.053
IIVENSGTSGDEDVDVL [RPN2] | 3.3 ± 0.12 | 3.61 ± 0.095 | 3.5 ± 0.075 | 3.52 ± 0.095
AIYNNPTRIRTKSSKEF [RRI2] | 1.41 ± 0.068 | 1.67 ± 0.06 | 1.68 ± 0.1 | 1.55 ± 0.061
MGQIATFIYFAYFLIIV [COB] | 1.63 ± 0.053 | 1.29 ± 0.046 | 1.16 ± 0.098 | 1.11 ± 0.026
LSHENNVMLEKIKDNKE [RPT5] | 2.49 ± 0.063 | 2.9 ± 0.054 | 2.46 ± 0.054 | 2.71 ± 0.045
RVASDTVHEMEEELKKL [SMC4] | 3.37 ± 0.21 | 3.33 ± 0.18 | 3.29 ± 0.12 | 3.63 ± 0.19
MTLNRKCVVIHNGSHRT [ARP7] | 2.59 ± 0.051 | 2.74 ± 0.062 | 2.54 ± 0.059 | 2.66 ± 0.045
FGAKSDEKKDSDSSKPA [YJL041W/NSP1] | 3.04 ± 0.074 | 3.21 ± 0.099 | 3.24 ± 0.07 | 3.04 ± 0.086
GGSGNGDDVVNDVQGID [RPP1] | 3.54 ± 0.25 | 3.55 ± 0.25 | 3.27 ± 0.079 | 3.1 ± 0.1
GVVRYVMESGAKGCEVV [RPS3] | 1.29 ± 0.097 | 1.67 ± 0.1 |  | 1.34 ± 0.086
LPTNPTLDKPNAEATKE [CSE2] | 2.91 ± 0.072 | 2.87 ± 0.062 | 2.89 ± 0.046 | 2.85 ± 0.066
LIQLQNIFKAEMDSVSK [CSN9] | 2.55 ± 0.08 | 2.54 ± 0.14 |  | 2.81 ± 0.13
KKRKNKSSGSSMATPTH [ROX3] | 2.99 ± 0.071 | 3.12 ± 0.077 | 2.96 ± 0.051 | 3.28 ± 0.063
CSRCGSVTRAGNIISSD [SIN4] |  | 3.33 ± 0.26 |  | 3.03 ± 0.22
HTVTNSPNPTLQPVIPG [SNF5] | 2.55 ± 0.052 | 2.32 ± 0.049 | 2.53 ± 0.052 | 2.78 ± 0.042
LLIIRSLKNTDALLNST [YJL039C/NUP192] | 2.97 ± 0.086 | 3 ± 0.096 | 2.37 ± 0.14 | 2.45 ± 0.15
SMKANTSTNPNGLGTSH [ARP7] | 3.22 ± 0.093 | 3.41 ± 0.098 | 2.95 ± 0.078 | 3.27 ± 0.075
VKLIVMLCTLTGYQNND [YJL039C/NUP192] | 1.89 ± 0.12 | 1.25 ± 0.078 | 1.29 ± 0.17 | 1.25 ± 0.098
PADRPQGRRNSRNFSTR [SIR4] | 3.02 ± 0.11 | 3.21 ± 0.074 | 3.1 ± 0.071 | 3.15 ± 0.074
DKQAEGTPLFTFGKKAD [YOR098C/NUP1] | 2.43 ± 0.06 | 2.43 ± 0.078 | 2.5 ± 0.077 | 1.75 ± 0.066
DDDERVEYNLFTNRSTM [BRN1] | 2.97 ± 0.12 | 3.2 ± 0.12 | 3.11 ± 0.07 | 3.1 ± 0.068
SIDPPGCVDIDDALHAK [DIS3] | 3.12 ± 0.085 | 3.19 ± 0.072 | 3.25 ± 0.071 | 3.31 ± 0.06
GRLEIFKIHTAKVKKTG [RPT4] | 2.13 ± 0.11 | 2.89 ± 0.12 | 2.33 ± 0.19 | 2.51 ± 0.097
ADNSGARNLYIIAVKGS [RPL23A] | 1.55 ± 0.049 | 1.63 ± 0.055 | 1.33 ± 0.11 | 1.53 ± 0.057
DVIHFEDSSILQSIVNE [PCI8] | 3.21 ± 0.089 | 3.06 ± 0.076 | 3.04 ± 0.05 | 3.47 ± 0.073
SQIFDQLKDMQTIEMIT [SRB8] | 2.78 ± 0.058 | 3.11 ± 0.049 | 2.72 ± 0.049 | 2.85 ± 0.043
QSSLSKVDIPLEVVQYI [NUT2] | 2.69 ± 0.081 | 2.16 ± 0.086 | 2.24 ± 0.083 | 2.29 ± 0.071
